Where two headings read alike, the source gives them in different places.
Key:
Test in all cases: cell-based or functional assay
[1] = biological target: T1, human TL1A (endogenous, human whole blood assay) (human, UniProt O95150 1-251, limits assumed)
T1 sequence (looked up): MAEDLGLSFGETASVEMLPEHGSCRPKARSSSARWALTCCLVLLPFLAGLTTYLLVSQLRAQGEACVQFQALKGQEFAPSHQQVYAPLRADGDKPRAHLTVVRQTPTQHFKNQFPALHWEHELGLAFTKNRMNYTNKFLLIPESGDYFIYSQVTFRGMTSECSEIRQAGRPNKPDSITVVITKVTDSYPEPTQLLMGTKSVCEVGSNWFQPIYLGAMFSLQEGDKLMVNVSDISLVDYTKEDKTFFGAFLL

[2] = biological target: T2, cynomolgus TL1A (endogenous, cynomolgus whole blood) (cynomolgus monkey, UniProt G7PRK8 1-251)
T2 sequence: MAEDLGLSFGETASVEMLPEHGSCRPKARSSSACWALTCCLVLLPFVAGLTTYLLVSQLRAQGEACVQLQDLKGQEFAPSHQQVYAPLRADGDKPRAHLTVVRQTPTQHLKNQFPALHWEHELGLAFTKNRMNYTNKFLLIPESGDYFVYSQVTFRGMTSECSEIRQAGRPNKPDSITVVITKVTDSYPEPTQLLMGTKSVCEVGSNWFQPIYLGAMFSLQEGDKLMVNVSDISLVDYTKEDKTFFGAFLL

[3] = biological target: T1, human TL1A (endogenous, human whole …); remark: listed apart in the source
[4] = biological target: T1, human TL1A (endogenous, human whole …); remark: listed apart in the source

| Binder | IC50, inhibition of IFN-γ production, human whole blood assay [1] | Potency (IC50, nM), cynomolgus whole blood assay, mean [2] | IC50, inhibition of IFN-γ production, human whole blood assay [3] | Potency (IC50, nM), human whole blood assay, mean [4] | fold greater potency towards human TL1A than cynomolgus TL1A, whole blood assays [1] |
| --- | --- | --- | --- | --- | --- |
| murine 5C3D11 monoclonal antibody (antibody, V domains shown) VH: EVQLQQSGAELVKPGASVKLSCTASGFDIQDTYMHWVKQRPEQGLEWIGRIDPASGHTKYDPKFQVKATITTDTSSNTAYLQLSSLTSEDTAVYYCSRSGGLPDVWGAGTTVTVSS VL: QIVLSQSPAILSASPGEKVTMTCRASSSVSYMYWYQQKPGSSPKPWIYATSNLASGVPDRFSGSGSGTSYSLTISRVEAEDAATYYCQQWSGNPRTFGGGTKLEIK | 1.38 nM | 0.18 nM | – | – | – |
| clone 23, modified IgG1 / kappa (antibody) heavy: not shown light: EIVLTQSPGTLSLSPGERATLSCRASSSVSYMYWYQQKPGQAPRLLIYATSNLASGIPDRFSGSGSGTDFTLTISRLEPEDFAVYYCQQWEGNPRTFGGGTKLEIKRTVAAPSVFIFPPSDEQLKSGTASVVCLLNNFYPREAKVQWKVDNALQSGNSQESVTEQDSKDSTYSLSSTLTLSKADYEKHKVYACEVTHQGLSSPVTKSFNRGEC | – | 0.72 nM | 0.41 nM | 0.64 nM | – |
| clone 14, modified IgG1 / kappa (antibody) heavy: not shown light: EIVLTQSPGTLSLSPGERATLSCRASSSVSYMYWYQQKPGQAPRLLIYATSNLASGIPDRFSGSGSGTDFTLTISRLEPEDFAVYYCQQWQGNPRTFGGGTKLEIKRTVAAPSVFIFPPSDEQLKSGTASVVCLLNNFYPREAKVQWKVDNALQSGNSQESVTEQDSKDSTYSLSSTLTLSKADYEKHKVYACEVTHQGLSSPVTKSFNRGEC | – | 0.28 nM | 0.19 nM | 0.3 nM | – |
| clone 34, modified IgG1 / kappa (antibody) heavy: not shown light: EIVLTQSPGTLSLSPGERATLSCRASSSVSYMYWYQQKPGQAPRLLIYATSNLASGIPDRFSGSGSGTDFTLTISRLEPEDFAVYYCQQWEGNPRTFGGGTKLEIKRTVAAPSVFIFPPSDEQLKSGTASVVCLLNNFYPREAKVQWKVDNALQSGNSQESVTEQDSKDSTYSLSSTLTLSKADYEKHKVYACEVTHQGLSSPVTKSFNRGEC | – | 0.21 nM | 0.18 nM | 0.24 nM | – |
| clone 53, modified IgG1 / kappa (antibody, V domains shown) VH: QVQLVQSGAEVKKPGASVKVSCKASGFDIQDTYMHWVRQAPGQGLEWMGRIEPASGHLKYDPKFQERVTMTRDTSTSTVYMELSSLRSEDTAVYYCARSGGLPDKWGQGTTVTVSS VL: EIVLTQSPGTLSLSPGERATLSCRASSSVSYMYWYQQKPGQAPRLLIYATSNLASGIPDRFSGSGSGTDFTLTISRLEPEDFAVYYCQQWEGNPRTFGGGTKLEIKR | – | 1.32 nM | 0.39 nM | 0.59 nM | ~2 fold |
| 12835 (humanized 5C3D11) antibody, IgG format (antibody, V domains shown) VH: QVQLVQSGAEVKKPGASVKLSCKASGFDIQDTYMHWVRQAPGQGLEWMGRIDPASGHTKYDPKFQVRVTMTTDTSTSTVYMELSSLRSEDTAVYYCSRSGGLPDVWGQGTTVTVSS VL: EIVLTQSPGTLSLSPGERVTMSCRASSSVSYMYWYQQKPGQAPRPWIYATSNLASGVPDRFSGSGSGTDYTLTISRLEPEDFAVYYCQQWSGNPRTFGGGTKLEIK | 9.28 nM | – | – | – | – |

From US20240368263A1 (PROMETHEUS BIOSCIENCES, published 2024)
